The results in this text go back to the RNAGym collection of RNA variant scans (doi:10.1093/molbev/msab373).

First the molecules themselves.
B1: Azoarcus group I ribozyme (parent)
chain: GUGCCUUGCGCCGGGAAACCACGCAAGGGAUGGUGUCAAAUUCGGCGAAACCUAAGCGCCCGCCCGGGCGUAUGGCAACGCCGAGCCAAGCUUCGGCGCCUGCGCCGAUGAAGGUGUAGAGACUAGACGGCACCCACCUAAGGCAAACGCUAUGGUGAAGGCAUAGUCCAGGGAGUGGCGAAAGUCACACAAACCGG

In this data set the parent is B1. The data set is described as follows: reverse-splicing fitness (ratio to wild type); higher = more active; in vitro selection; Mg2+ level not given. The gist of the method: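 An in vitro group I ribozyme library with randomized positions was T7-transcribed and gel-purified. In triplicate, 10 pmol RNA in EPPS pH 7.5 was reacted with 50 pmoles of a 30-nt RNA substrate for 1 h at 37 °C across several added MgCl2 levels (1–48 mM), then stopped with EDTA. Products were reverse transcribed from a substrate-complementary primer, PCR-amplified and sequenced (HiSeq 4000). Fitness is a variant's read proportion after selection over that before, normalised to wild type.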
Consider C82G A111C A145C C169A, for which the reverse-splicing fitness is 0.00847.
To C82G A111G A120G A145C C150G C169A U176G belongs 0.00562.
To C82A A111G A120U A145U C150A C169A belongs 0.00209.
To C82A A120U A145G C150U U176A belongs 0.0246.
Take C82U A111G A120C A145G U176C: the reverse-splicing fitness was determined as 0.0318.
The result for C82A A111U A120U A145U C150G C169G U176G reads 0.00241.
As for C82A A111U A120C C150G, the reverse-splicing fitness was determined as 0.00909.
The result for C82A A145G C150U C169G reads 0.0117; that for C82G A111U A145U C169A, 0.00754.
On to C82U A145C, for which the reverse-splicing fitness was 0.598.
The result for C82A A111G C150A C169A reads 0.0109.
To C82G A120G A145G C150U C169A U176A belongs 0.0171; to C82G A111C A120U A145C U176C, 0.013.
To A120C A145G C150U C169G U176G belongs 0.004; to C82U A111G C150A C169G U176G, 0.00673.
For A120C C150G C169G U176A, the reverse-splicing fitness is 0.0074.
The result for A111U A120C C150A C169U U176A reads 0.0243; that for C82A A120C A145C C150U U176G, 0.00635.
On to C82G A120C A145U C150U C169G U176A, for which the reverse-splicing fitness was 0.0139.
Consider C82U A111G A120C A145U C150A C169G U176C, for which the reverse-splicing fitness was 0.0112.
To C82U A120U C150G C169A U176G belongs 0.00234; to C150G U176C, 0.286.
Turning to C82G A120U A145G C150G, the reverse-splicing fitness is 0.022.
The result for C82A A111U A120G A145U U176A reads 0.0132; that for C82U A111G A120G A145C C150G C169A, 0.00854; that for C82U A111C A120U A145C C169A U176C, 0.00244.
For the variant C82G A111U A120U A145C C150A C169A, the reverse-splicing fitness came out at 0.00264.
To A111U A120C A145C C150A C169U U176A belongs 0.0169; to C82A A111U A145C C150A C169A U176G, 0.00855.
The result for C82A A111C A120U A145U C150G U176C reads 0.00511; that for C82U A111U A145G C169U U176G, 0.0055; that for A111C A120G C150G C169G U176A, 0.0066.
The result for A111G A120C C150G C169U U176C reads 0.0152; that for C82A A120G A145U C169G U176G, 0.00322; that for C82A A120G A145U C169G U176C, 0.0144.
Turning to C82G A111C A120G C150A C169A U176C, the reverse-splicing fitness came to 0.0214.
On to C82U A111U A145G C150A C169A U176A, for which the reverse-splicing fitness is 0.0186.
To C82U A111G A120C A145U C150G U176A belongs 0.00455; to C82G A111C A120C C150A C169U U176A, 0.015; to C82A A120U A145G C150U C169G U176C, 0.0042.
With A111U A145U C150A U176A, the reverse-splicing fitness came out at 0.192.
For C82G A111G A120C C150U U176A, the reverse-splicing fitness turned out to be 0.0201.
The result for C82G A111U A120C A145G U176G reads 0.00743; that for C82G A111U A120C A145G U176C, 0.0311.
Take C82A A111G A120G A145U C150A C169G U176A: the reverse-splicing fitness is 0.0145.
To C82A A120C A145U C150A C169A belongs 0.0105; to C82U A111G A120C A145C C169G, 0.00713.
The result for C82G A111U A120U C150U C169G reads 0.00565.
The result for C82U A145C C150G C169G U176G reads 0.00454; that for C82U A111C A120U A145C C150U C169G U176A, 0.003.
C82A C150A C169A U176G: the reverse-splicing fitness is 0.007.
The result for C82A A120C A145G C150U C169U U176A reads 0.0157; that for C82A A111C A120G C150U C169U, 0.00806.
On to C82A A111G A120U A145C C150A C169G U176G, for which the reverse-splicing fitness stood at 0.00149.
For the variant C82U A111G A120U A145G C150A C169A U176G, the reverse-splicing fitness was found to be 0.00258.
To C82U A111U C169U U176C belongs 0.013.
C82G A111U A120C A145U C150A: the reverse-splicing fitness is 0.0104.
The result for C82G A111U A120C C150U C169G U176G reads 0.00625; that for C82A A145G C169G, 0.0111; that for C82A A145U C150G C169A U176A, 0.0118.
To C82U A111U A145G C169A U176G belongs 0.00582; to C82U A111U A145G C169A U176A, 0.0191.
To C82U A111G A120G C150U C169G U176C belongs 0.0174; to C82G A111G A145G C169U U176C, 0.0155.
Regarding C82G A145G C169G U176C, the reverse-splicing fitness came out at 0.0279.
The result for C82U A111G A120U A145U C150G U176C reads 0.00492; that for C82U A120C A145G C150U, 0.139; that for C82A A111G A120G C150A C169U U176C, 0.0219.
To C82U A111G A145C C150A belongs 0.019; to A111U A120U A145G C150G C169A U176C, 0.00774.
Take C82G A111U A145C C150G: the reverse-splicing fitness is 0.0354.
In the case of C82A A111G A145G C150U C169A, the reverse-splicing fitness was 0.0115.
Regarding C82G A111C A120G A145U C169U U176A, the reverse-splicing fitness is 0.0144.
The result for C82A A111U A120G A145C C150G C169G U176G reads 0.00452.
The result for C82U A111G A120C C150A U176G reads 0.00554; that for C82U A111U A145U C150A C169G U176A, 0.011.
For the variant A111C A120G C150G U176C, the reverse-splicing fitness is 0.0173.
The result for C82G A111C C150A C169A U176C reads 0.0158; that for C82G A111U A120U A145G C150G C169A U176C, 0.0086; that for C82A A111U A120G C150U C169A U176C, 0.0163.
With A111C A120C A145C C169U U176A, the reverse-splicing fitness worked out at 0.0332.
To A111U A120G C150G U176A belongs 0.00753; to A120G A145G C150U C169G U176G, 0.00838.
